Here are results for one substance from patent US20190276551A1.

The target in the assay is human CD38 protein immobilised on AR2G biosensor (human) (UniProt P28907). Description: Octet BLI, immobilised CD38.

By koff is commonly meant the first-order rate constant of dissociation. Lower therefore signals slow dissociation. Substance Daratumumab scFv came in with an off-rate constant (koff) of 0.0044 s⁻¹.
